# Measurements from the supplement of paper PMC10126150.
# ± gives the standard deviation of the averaged measurements.
# Tested on: ATP
# Test: switch fluorescence ratio, 500 uM ATP over buffer (Cy3 cluster intensity, sum of 5 cycles each) (fold (ratio)); higher = stronger signal-on switching upon ATP binding; sequences stand for … in TCGTCGGCAGCGTCAGATGTGTATAAGAGACAGTTTTTTTTTTTTTTTTTTTTTTTTT…TC
# Details: aptamer strand: ATP DNA aptamer (quencher-CACCTGGGGGAGTATTGCGGAGGAAGG + anchor), 100 nM annealed; ATP concentration: 500 uM
# Outline: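 Exposure to 500 uM ATP lasted 15 min at 22 °C before imaging, and a selection-buffer image was taken beforehand, for Cy3-labelled switching-strand clusters on a modified Illumina MiSeq flow-cell annealed to 100 nM quencher-labelled ATP aptamer. Five buffer/ATP cycles were run with NaOH stripping and re-annealing between them. The fluorescence ratio per cluster is summed target-cycle over summed buffer-cycle Cy3 intensity, averaged per switch-domain sequence. Clusters outside 100-1000 RFU were excluded.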
row,Sequence,switch fluorescence ratio
1,CAGAGGGTGC,1.03 ± 0.017
2,GTTTAGAGGT,0.9925 ± 0.0082
3,CACGGATAGC,1.07 ± 0.027
4,TCGGGTTTAT,1 ± 0.037
5,TGTGAAAAAG,0.976 ± 0.053
6,CCTGGGGAAT,1.91 ± 1.1
7,GGTGAAGAGG,0.9791 ± 0.0061
8,TTGATCTTGG,1.04 ± 0.013
9,ATGATAGTGA,0.991 ± 0.012
10,TGGGTGGCGG,0.945 ± 0.052
11,AATTGTGAGT,0.985 ± 0.024
12,TCGGGGGTG,1.01 ± 0.085
13,GAGGGCCGGG,0.995 ± 0.068
14,TTCGGCTTGA,0.994 ± 0.028
15,GAAAACGAAT,1.07 ± 0.14
16,CGGAGTCGGG,1.04 ± 0.052
17,GCCGGCTTTG,1.03 ± 0.026
18,GACGTTAAAT,1.01 ± 0.034
19,CCCTCTCGGT,1.037 ± 0.0028
20,AGGTGGGCGC,0.94 ± 0.07
21,CTCCTCGTCA,1.17 ± 0.036
22,ATCACTGGGC,1.1 ± 0.092
23,CGGGGGTTAC,1.4 ± 0.56
24,TTTATGATGC,1.011 ± 0.0092
25,AGTATTGCAG,0.9322 ± 0.002
26,TGCTGAAGGG,1.04 ± 0.03

row,Sequence,switch fluorescence ratio
1,AAAGCTGTTT,1.02 ± 0.014
2,TAGTTTTTAA,1.01 ± 0.008
3,CACGGGGGAC,1.06 ± 0.021
4,GACGGTAGTA,1.02 ± 0.017
5,ATTGATTTTC,0.999 ± 0.024
6,GAGTCGGGTA,1.028 ± 0.0097
7,GAAATCGCCA,1.022 ± 0.007
8,TTTGGTATAG,0.975 ± 0.01
9,TCACGAATTT,1 ± 0.014
10,ATTTAGGCGT,1 ± 0.039
11,AGCATGGTAT,1 ± 0.04
12,ATGTAAAGTC,1.018 ± 0.0031
13,CAGGGGTAAA,1.01 ± 0.019
14,GATATGCGTT,0.985 ± 0.031
15,GAATAAGGGA,1 ± 0.014
16,TTGCGTAGTT,1.01 ± 0.029
17,TGAGGGGCGA,0.989 ± 0.028
18,AGCAAATGGT,1.07 ± 0.051
19,TAGTGGGAAT,0.968 ± 0.032
20,ACGTTGATTC,1.03 ± 0.047
21,ATTATTGAGA,1.036 ± 0.004
22,GGGACGGTAG,1.04 ± 0.034
23,GTAAATAGCT,1.02 ± 0.073
24,GTGGTATCCG,0.973 ± 0.058
25,TTAAGTTATT,1.03 ± 0.056
26,GGAGATTTGT,1.01 ± 0.032

row,Sequence,switch fluorescence ratio
1,GTGTGAGTGT,0.973 ± 0.016
2,TTAGTCGTCG,1 ± 0.06
3,GGGGGGGAAT,1 ± 0.045
4,CGGGCTCAGC,1.008 ± 0.0094
5,TGGGTAGGGG,0.985 ± 0.025
6,AGGAGGTAAA,1.002 ± 0.0034
7,CGGAAGTGCG,1.0061 ± 6.8e-05
8,ACTAAAGGCT,1.01 ± 0.015
9,TCTGTCGGGC,0.994 ± 0.054
10,CGTGCTAGAA,1.0154 ± 0.001
11,TTGGTCTGGT,0.973 ± 0.024
12,GTTTCATGGG,0.9685 ± 0.0041
13,TCGTTTTTGG,1 ± 0.041
14,TGAGATACAT,1.13 ± 0.1
15,TGTTTGTGTT,0.977 ± 0.013
16,CGGGGAAGTT,0.9847 ± 0.0079
17,GTTTGGGCGG,0.978 ± 0.057
18,CTAAGGCGAT,1.06 ± 0.12
19,TCATGTTTTT,1.05 ± 0.14
20,GGTATATATG,0.995 ± 0.055
21,GGTGGGGAAT,0.979 ± 0.022
22,GTCGGGGGG,1.01 ± 0.026
23,CCCGGGGTTT,1.31 ± 0.36
24,GCACTAGGGG,1.09 ± 0.015
25,TAAGGCTCCC,1.063 ± 0.0044
26,AAAAACGTCA,1.003 ± 0.0045

row,Sequence,switch fluorescence ratio
1,CAATCTTCGT,1.02 ± 0.021
2,TAGTGTGGG,0.99 ± 0.024
3,CAGTTTGTTT,0.9881 ± 0.0031
4,TTTATATTTT,1.02 ± 0.034
5,TTAGGGGATC,1 ± 0.025
6,ATTTGCGTTC,1.01 ± 0.056
7,GGGTTGGGGG,1 ± 0.032
8,TATGAGGGG,0.999 ± 0.027
9,CGTTCAGCT,1.01 ± 0.035
10,TCCGTATATT,1.103 ± 0.0024
11,TTAAAGCTTT,1.09 ± 0.22
12,AAGAGGGGGT,1 ± 0.03
13,GCTGTAAGAA,1.01 ± 0.037
14,AGTTAGGCCT,1.02 ± 0.039
15,TGGTGCCCCA,1.03 ± 0.023
16,CTATGGGTTT,1.024 ± 0.0032
17,TGGCGTTGAT,0.984 ± 0.019
18,TGGGATATCT,1 ± 0.023
19,TCGGCACCAA,1.05 ± 0.046
20,GGGGCAGGCT,0.886 ± 0.18
21,AAAAGTATAA,1.03 ± 0.036
22,TATCGTATGT,0.991 ± 0.027
23,TTTTTTGGTG,1.02 ± 0.036
24,AATTTAGGAT,0.989 ± 0.027
25,TTTCCTTTGG,1.01 ± 0.032
26,TACCGTGGGG,1.05 ± 0.038

row,Sequence,switch fluorescence ratio
1,AAGGGCTGTG,0.9845 ± 0.007
2,CGGCGGGTGG,1.02 ± 0.041
3,GGTTGTCTCG,0.951 ± 0.021
4,AGCTTTATGC,0.935 ± 0.043
5,TCCGGGAGGG,1.02 ± 0.053
6,GGTTACTAAG,1.01 ± 0.017
7,ATGGTGTGTG,1.01 ± 0.033
8,GTTTGTGC,0.998 ± 0.059
9,TTTACTGGTG,1.13 ± 0.012
10,CCTCGTTAGC,2.63 ± 0.13
11,AGAATGGGTG,1.05 ± 0.036
12,TGAAAGAACT,1.16 ± 0.21
13,TGGAACACCT,1.13 ± 0.041
14,GGCTTTTACG,1.03 ± 0.042
15,TTTGACGGGC,1.05 ± 0.032
16,TCAAGGGGTT,1.1 ± 0.15
17,GATGTCATTT,0.987 ± 0.024
18,TTTGGTTGAG,1 ± 0.047
19,GTGAATGTAT,1.02 ± 0.021
20,TTTAGACGTG,0.976 ± 0.012
21,ATTGTAGTGC,0.97 ± 0.021
22,CGGATTGTAG,1.03 ± 0.04
23,GGAGACTGGT,1.02 ± 0.063
24,CTGTGGATGG,1.01 ± 0.041
25,AGTTCTACAT,1.01 ± 0.039
26,ATGCATTTTG,0.97 ± 0.03

row,Sequence,switch fluorescence ratio
1,TTTTAGGTCC,0.977 ± 0.023
2,CGGGGTACGG,1.01 ± 0.017
3,TTGCTGAGAC,1.24 ± 0.3
4,AGATTAAGTA,0.989 ± 0.024
5,TAATTTAGAA,0.975 ± 0.021
6,CATAGGAAGG,0.987 ± 0.013
7,AACGGTTTGG,1.01 ± 0.021
8,GGTAGTGGGG,0.987 ± 0.021
9,AAGGGTGCTA,0.9787 ± 0.0016
10,TAATGAGCTT,0.995 ± 0.013
11,TCCGAGTGAG,1.13 ± 0.058
12,TGCCAGTACG,1.064 ± 0.0044
13,CGCACTGTGG,1.028 ± 0.0031
14,CTTAGATTTT,0.988 ± 0.025
15,ATATGTGGGC,0.9577 ± 0.0068
16,GACAGGTCGT,1.043 ± 0.0054
17,AATCGCTAGC,1.02 ± 0.011
18,ACTTACAGAA,1.23 ± 0.011
19,TCATTTTGGG,0.999 ± 0.028
20,CGAGTAAATG,1.01 ± 0.021
21,GGGGTCGTTC,0.99 ± 0.028
22,GAAGGTGAAT,1.04 ± 0.022
23,TGGTTTATAT,1 ± 0.013
